Substitutions are numbered along the chain they refer to. Numbers in names are those of the source.
T1: CD20 (human, UniProt P11836 1-297)
T1 construct: whole, on cells; 2H7 is called murine anti-human CD20; also called CD20 presented on WIL-2S cells; CD20 on Ramos, BJAB, SU-DHL-6 and DoHH2 B cells
T1 sequence (looked up): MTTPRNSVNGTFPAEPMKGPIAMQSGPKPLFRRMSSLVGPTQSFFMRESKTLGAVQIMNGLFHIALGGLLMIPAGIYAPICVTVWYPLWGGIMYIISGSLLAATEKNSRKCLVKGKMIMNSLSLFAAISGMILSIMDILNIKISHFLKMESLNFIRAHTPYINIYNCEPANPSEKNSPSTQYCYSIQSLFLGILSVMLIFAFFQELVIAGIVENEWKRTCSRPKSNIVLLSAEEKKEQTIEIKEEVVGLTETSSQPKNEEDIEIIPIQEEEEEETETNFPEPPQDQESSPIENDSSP

B1: 2H7-sss-hIgG-STD1-G19-4 HL (bispecific antibody)
chain (part 1 of 2): QIVLSQSPAILSASPGEKVTMTCRASSSVSYMHWYQQKPGSSPKPWIYAPSNLASGVPARFSGSGSGTSYSLTISRVEAEDAATYYCQQWSFNPPTFGAGTKLELKDGGGSGGGGSGGGGSSQAYLQQSGAESVRPGASVKMSCKASGYTFTSYNMHWVKQTPRQGLEWIGAIYPGNGDTSYNQKFKGKATLTVDKSSSTAYMQLSSLTSEDSAVYFCARVVYYSNSYWYFDVWGTGTTVTVSEPKSSDKTHTSPPSP
chain (part 2 of 2): NYGGGGSGGGGSGGGGSGNSEVQLQQSGPELVKPGASMKISCKASGYSFTGYIVNWLKQSHGKNLEWIGLINPYKGLTTYNQKFKGKATLTVDKSSSTAYMELLSLTSEDSAVYYCARSGYYGDSDWYFDVWGAGTTVTVSSGGGGSGGGGSGGGGSASDIQMTQTTSSLSASLGDRVTISCRASQDIRNYLNWYQQKPDGTVKLLIYYTSRLHSGVPSRFSGSGSGTDYSLTIANLQPEDIATYFCQQGNTLPWTFGGGTKLVTKRS
notes: Assembled from modules; also called 2H7sssIgG1-STD1-G19-4 HL; CD20-hIgG-CD3 multispecific molecule (SSS hinge, HL); not shown: human IgG1 CH2-CH3
B2: 2H7-sss-hIgG-STD1-G19-4 LH (bispecific antibody)
chain (part 1 of 2): B1 chain (part 1 of 2)
chain (part 2 of 2): NYGGGGSGGGGSGGGGSGNSDIQMTQTTSSLSASLGDRVTISCRASQDIRNYLNWYQQKPDGTVKLLIYYTSRLHSGVPSRFSGSGSGTDYSLTIANLQPEDIATYFCQQGNTLPWTFGGGTKLVTKRGGGGSGGGGSGGGGSASEVQLQQSGPELVKPGASMKISCKASGYSFTGYIVNWLKQSHGKNLEWIGLINPYKGLTTYNQKFKGKATLTVDKSSSTAYMELLSLTSEDSAVYYCARSGYYGDSDWYFDVWGAGTTVTVSS
notes: Assembled from modules; also called 2H7sssIgG1-STD1-G19-4 LH; CD20-hIgG-CD3 multispecific molecule (LH); not shown: human IgG1 CH2-CH3
B3: 2H7-csc-hIgG-STD1-G19-4 HL (bispecific antibody)
chain (part 1 of 2): B1 chain (part 1 of 2) with S248C, S257C
chain (part 2 of 2): B1 chain (part 2 of 2)
notes: Assembled from modules; also called CD20-hIgG-CD3 multispecific molecule (CSC hinge, HL); not shown: human IgG1 CH2-CH3
B4: 2H7-sss-hIgG P238S/P331S-H6-2e12 VHVL (bispecific antibody)
chain: QIVLSQSPAILSASPGEKVTMTCRASSSVSYMHWYQQKPGSSPKPWIYAPSNLASGVPARFSGSGSGTSYSLTISRVEAEDAATYYCQQWSFNPPTFGAGTKLELKDGGGSGGGGSGGGGSSQAYLQQSGAESVRPGASVKMSCKASGYTFTSYNMHWVKQTPRQGLEWIGAIYPGNGDTSYNQKFKGKATLTVDKSSSTAYMQLSSLTSEDSAVYFCARVVYYSNSYWYFDVWGTGTTVTVSEPKSSDKTHTSPPSPAPELLGGSSVFLFPPKPKDTLMISRTPEVTCVVVDVSHEDPEVKFNWYVDGVEVHNAKTKPREEQYNSTYRVVSVLTVLHQDWLNGKEYKCKVSNKALPASIEKTISKAKGQPREPQVYTLPPSRDELTKNQVSLTCLVKGFYPSDIAVEWESNGQPENNYKTTPPVLDSDGSFFLYSKLTVDKSRWQQGNVFSCSVMHEALHNHYTQKSLSLSPGKGGGGSGGGGSGGGGSGNSQVQLKESGPGLVAPSQSLSITCTVSGFSLTGYGVNWVRQPPGKGLEWLGMIWGDGSTDYNSALKSRLSITKDNSKSQVFLKMNSLQTDDTARYYCARDGYSNFHYYVMDYWGQGTSVTVSSGGGGSGGGGSGGGGSGGGGSDIVLTQSPASLAVSLGQRATISCRASESVEYYVTSLMQWYQQKPGQPPKLLISAASNVESGVPARFSGSGSGTDFSLNIHPVEEDDIAMYFCQQSRKVPWTFGGGTKLEIKR
notes: Assembled from modules as m11; The preparation held a share of cleaved, SMIP-sized molecules; also called 2H7-sss-hIgG-H6-2e12
B5: 2H7-sssIgG P238S/P331S-STD1-2e12 VLVH (bispecific antibody)
chain: QIVLSQSPAILSASPGEKVTMTCRASSSVSYMHWYQQKPGSSPKPWIYAPSNLASGVPARFSGSGSGTSYSLTISRVEAEDAATYYCQQWSFNPPTFGAGTKLELKDGGGSGGGGSGGGGSSQAYLQQSGAESVRPGASVKMSCKASGYTFTSYNMHWVKQTPRQGLEWIGAIYPGNGDTSYNQKFKGKATLTVDKSSSTAYMQLSSLTSEDSAVYFCARVVYYSNSYWYFDVWGTGTTVTVSEPKSSDKTHTSPPSPAPELLGGSSVFLFPPKPKDTLMISRTPEVTCVVVDVSHEDPEVKFNWYVDGVEVHNAKTKPREEQYNSTYRVVSVLTVLHQDWLNGKEYKCKVSNKALPASIEKTISKAKGQPREPQVYTLPPSRDELTKNQVSLTCLVKGFYPSDIAVEWESNGQPENNYKTTPPVLDSDGSFFLYSKLTVDKSRWQQGNVFSCSVMHEALHNHYTQKSLSLSPGKNYGGGGSGGGGSGGGGSGNSDIVLTQSPASLAVSLGQRATISCRASESVEYYVTSLMQWYQQKPGQPPKLLISAASNVESGVPARFSGSGSGTDFSLNIHPVEEDDIAMYFCQQSRKVPWTFGGGTKLEIKRGGGGSGGGGSGGGGSQVQLKESGPGLVAPSQSLSITCTVSGFSLTGYGVNWVRQPPGKGLEWLGMIWGDGSTDYNSALKSRLSITKDNSKSQVFLKMNSLQTDDTARYYCARDGYSNFHYYVMDYWGQGTSVTVSS
notes: also called 2H7-IgG-STD1-2E12 LH; 2H7-2E12 LH
B6: 2H7-sss-hIgG P238S/P331S-H3-2e12 VHVL (bispecific antibody)
chain: QIVLSQSPAILSASPGEKVTMTCRASSSVSYMHWYQQKPGSSPKPWIYAPSNLASGVPARFSGSGSGTSYSLTISRVEAEDAATYYCQQWSFNPPTFGAGTKLELKDGGGSGGGGSGGGGSSQAYLQQSGAESVRPGASVKMSCKASGYTFTSYNMHWVKQTPRQGLEWIGAIYPGNGDTSYNQKFKGKATLTVDKSSSTAYMQLSSLTSEDSAVYFCARVVYYSNSYWYFDVWGTGTTVTVSEPKSSDKTHTSPPSPAPELLGGSSVFLFPPKPKDTLMISRTPEVTCVVVDVSHEDPEVKFNWYVDGVEVHNAKTKPREEQYNSTYRVVSVLTVLHQDWLNGKEYKCKVSNKALPASIEKTISKAKGQPREPQVYTLPPSRDELTKNQVSLTCLVKGFYPSDIAVEWESNGQPENNYKTTPPVLDSDGSFFLYSKLTVDKSRWQQGNVFSCSVMHEALHNHYTQKSLSLSPGKNYGGGGSGNSQVQLKESGPGLVAPSQSLSITCTVSGFSLTGYGVNWVRQPPGKGLEWLGMIWGDGSTDYNSALKSRLSITKDNSKSQVFLKMNSLQTDDTARYYCARDGYSNFHYYVMDYWGQGTSVTVSSGGGGSGGGGSGGGGSGGGGSDIVLTQSPASLAVSLGQRATISCRASESVEYYVTSLMQWYQQKPGQPPKLLISAASNVESGVPARFSGSGSGTDFSLNIHPVEEDDIAMYFCQQSRKVPWTFGGGTKLEIKR
notes: Assembled from modules as m11; also called 2H7-sss-hIgG-H3-2e12 HL
B7: 2H7-sss-hIgG-H7-2e12 HL (bispecific antibody)
chain: QIVLSQSPAILSASPGEKVTMTCRASSSVSYMHWYQQKPGSSPKPWIYAPSNLASGVPARFSGSGSGTSYSLTISRVEAEDAATYYCQQWSFNPPTFGAGTKLELKDGGGSGGGGSGGGGSSQAYLQQSGAESVRPGASVKMSCKASGYTFTSYNMHWVKQTPRQGLEWIGAIYPGNGDTSYNQKFKGKATLTVDKSSSTAYMQLSSLTSEDSAVYFCARVVYYSNSYWYFDVWGTGTTVTVSEPKSSDKTHTSPPSPAPELLGGSSVFLFPPKPKDTLMISRTPEVTCVVVDVSHEDPEVKFNWYVDGVEVHNAKTKPREEQYNSTYRVVSVLTVLHQDWLNGKEYKCKVSNKALPASIEKTISKAKGQPREPQVYTLPPSRDELTKNQVSLTCLVKGFYPSDIAVEWESNGQPENNYKTTPPVLDSDGSFFLYSKLTVDKSRWQQGNVFSCSVMHEALHNHYTQKSLSLSPGKGCPPCPNSQVQLKESGPGLVAPSQSLSITCTVSGFSLTGYGVNWVRQPPGKGLEWLGMIWGDGSTDYNSALKSRLSITKDNSKSQVFLKMNSLQTDDTARYYCARDGYSNFHYYVMDYWGQGTSVTVSSGGGGSGGGGSGGGGSGGGGSDIVLTQSPASLAVSLGQRATISCRASESVEYYVTSLMQWYQQKPGQPPKLLISAASNVESGVPARFSGSGSGTDFSLNIHPVEEDDIAMYFCQQSRKVPWTFGGGTKLEIKR
notes: Assembled from modules as m11; also called 2H7-sss-IgG-H7-2e12-HL

Experiments:
CD20 [1] = target: T1, CD20; assay: flow cytometry on WIL2S cells (CD20), FITC goat anti-human IgG; no unit printed on the axis (legend: ug/ml)
CD20 [2] = target: T1, CD20; assay: flow cytometry, upper graph taken as panel A of the legend = WIL-2S cells (CD20); FITC goat anti-human IgG [upper graph]
Description: (§1) Seeded plates containing the proteins were incubated on ice for one hour. Subsequently, the wells were washed once with 200 μl 1% FBS in PBS. Goat anti-human antibody labeled with FITC (Fc Sp) at 1:100 was then added to each well, and the plates were again incubated on ice for one hour. The plates were then washed once with 200 μl 1% FBS in PBS and the cells were re-suspended in 200 μl 1% FBS and analyzed by FACS.
(§2) To assess the binding properties of the anti-CD28 peptide 2E12 VHVL, CD28-expressing CHO cells were plated by seeding in individual wells of a culture plate. […] The 2E12IgGvHvL SMIP purified protein was added to individual seeded wells, again using a two-fold dilution scheme, i.e., from 20 μg/ml down to […]. One well received no protein to provide a background control. The plates were then incubated on ice for one hour, washed once with 200 μl 1% FBS in PBS, and goat anti-human antibody labeled with FITC (Fc Sp) at 1:100 was added to each well. The plates were again incubated on ice for one hour and subsequently washed once with 200 μl 1% FBS in PBS. Following re-suspension of the cells in 200 μl 1% FBS, FACS analysis was performed.

[3] = target: T2, CD28 presented on CHO cells (UniProt P10747 19-220, limits assumed); assay: flow cytometry, lower graph taken as panel B of the legend = CD28 CHO cells; FITC goat anti-human IgG [lower graph]
T2 construct: whole, on cells; also called CD28 CHO; CD28-expressing CHO cells
Description: as §1, §2

CD28mIgG = target: T3, CD28mIgG (UniProt P10747 19-152); assay: sandwich flow cytometry: fusion protein titrated on WIL-2S cells (held by CD20), then CD28mIgG, then FITC anti-mouse
T3 construct: Bought reagent; the construct is not described; also called CD28Ig (Ancell); CD28 fused to mouse antibody; not shown: mouse Ig part of the bought fusion; not described

CD20 [4] = target: T1, CD20; assay: flow cytometry, dilutions of crude COS supernatant on WIL-2S cells (CD20), FITC goat anti-human IgG
Description: as §1

| Binder | binding result (CD20 [1]) | EC50 (read off the curve) (CD20 [2]) [µg/mL] | EC50 (read off the curve) [3] [µg/mL] | EC50 (read off the curve) (CD28mIgG) [µg/mL] | binding result (CD20 [4]) |
| --- | --- | --- | --- | --- | --- |
| B1 | binds |  |  |  |  |
| B2 | binds |  |  |  |  |
| B3 | binds |  |  |  |  |
| B4 |  | ~1 | ~0.8 | ~0.3 |  |
| B5 |  |  |  |  | binds |
| B6 |  | ~1 | ~0.8 | ~0.4 |  |
| B7 |  | ~1 | ~0.5 | ~0.3 |  |

— patent publication US20140154252A1 (EMERGENT PRODUCT DEVELOPMENT SEATTLE, published 2014)
